Consider one molecule from publication PMC12273567 (The Journal of Biological Chemistry, 2025).

The experiment deals with T1, recombinant His-tagged NRF2, full length (UniProt Q16236 1-605).
T1 sequence: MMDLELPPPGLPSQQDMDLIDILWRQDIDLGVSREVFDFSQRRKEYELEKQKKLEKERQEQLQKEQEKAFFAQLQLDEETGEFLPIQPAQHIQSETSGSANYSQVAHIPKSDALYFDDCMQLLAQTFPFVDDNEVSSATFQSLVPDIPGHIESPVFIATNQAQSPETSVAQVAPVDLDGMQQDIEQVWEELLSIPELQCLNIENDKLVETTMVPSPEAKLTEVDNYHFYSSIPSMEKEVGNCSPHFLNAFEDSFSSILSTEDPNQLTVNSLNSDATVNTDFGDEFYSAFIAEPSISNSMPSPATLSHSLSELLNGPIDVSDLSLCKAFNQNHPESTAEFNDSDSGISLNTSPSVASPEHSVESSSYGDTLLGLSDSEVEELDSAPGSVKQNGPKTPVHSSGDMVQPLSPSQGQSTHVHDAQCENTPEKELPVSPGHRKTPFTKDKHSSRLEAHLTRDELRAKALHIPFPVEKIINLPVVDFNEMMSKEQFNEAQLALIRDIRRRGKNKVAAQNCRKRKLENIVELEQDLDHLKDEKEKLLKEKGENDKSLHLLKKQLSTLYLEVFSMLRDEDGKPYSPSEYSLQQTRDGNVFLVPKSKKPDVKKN
Put plainly: MST.

B1: recombinant αB-crystallin (natural protein)
chain: MDIAIHHPWIRRPFFPFHSPSRLFDQFFGEHLLESDLFPTSTSLSPFYLRPPSFLRAPSWFDTGLSEMRLEKDRFSVNLDVKHFSPEELKVKVLGDVIEVHGKHEERQDEHGFISREFHRKYRIPADVDPLTITSSLSSDGVLTVNGPRKQVSGPERTIPITREEKPAVTAAPKK
Usually Kd stands for a measure of binding affinity in units of concentration. Consider B1, for which the Kd amounted to 859 ± 70.1 nM.
